Biological target: T1, recombinant human calmodulin (CALM) 1/2/3 (human, UniProt P0DP23 1-149)
T1 construct: human calmodulin, printed as calmodulin (CALM) 1/2/3; also called His-tagged CALM; source: bought: Abcam; not shown: His tag, N-terminal, kept
Assay: pull-down; hAPP SP (9–17) 500 nM mixed with N-terminally His-tagged CALM 1 μg/mL in xTractor buffer, with or without CaCl2 500 μM, overnight at 4 °C; CALM separated on a Capturem His-Tagged Purification Miniprep; bound peptides read by MALDI-TOF MS/MS
Details: both partners purified

B1: hAPP SP (9–17) (peptide)
peptide: LLAAWTARA
notes: residues 9-17 of the signal peptide of human amyloid precursor protein (APP); also called C-terminal fragment of APP SP; source: synthetic peptide, bought: Eurofins Scientific
binding result: binds

B2: C-terminal fragment of APP SP (LAAWTARA) (peptide)
peptide: LAAWTARA
notes: stretch of the signal peptide of human amyloid precursor protein (APP), one residue shorter than hAPP SP (9–17); also called exosomal SP fragment
binding result: binds
